# From US6294648, “Protein having proteinase inhibitor activity” (Bayer Corporation, dated 2001)
# T1: Human neutrophil cathepsin G (human, UniProt P08311)
# T1 sequence: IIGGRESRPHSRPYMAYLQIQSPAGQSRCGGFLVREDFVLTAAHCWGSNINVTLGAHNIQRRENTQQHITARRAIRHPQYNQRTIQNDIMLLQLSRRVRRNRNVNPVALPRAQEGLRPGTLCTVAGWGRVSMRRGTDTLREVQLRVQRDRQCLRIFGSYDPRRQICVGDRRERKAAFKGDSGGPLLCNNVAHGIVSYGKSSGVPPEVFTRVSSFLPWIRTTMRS
# T2: Human neutrophil proteinase 3 (human, UniProt P24158)
# T2 sequence: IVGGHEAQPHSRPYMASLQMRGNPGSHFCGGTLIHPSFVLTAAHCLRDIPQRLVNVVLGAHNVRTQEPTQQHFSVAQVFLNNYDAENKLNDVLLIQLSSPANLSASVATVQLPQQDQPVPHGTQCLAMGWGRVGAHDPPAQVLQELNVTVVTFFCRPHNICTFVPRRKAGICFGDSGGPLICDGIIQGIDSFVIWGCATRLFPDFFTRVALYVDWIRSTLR
# B1: BTL.009 (other)
# chain: KQDVCEMPKETGPCLAYFLHWWYDKKDNTCSMFVYGGCQGNNNNFQSKANCLNTC
# Assays:
# [1] = target: T1, Human neutrophil cathepsin G; assay: enzyme inhibition; 30 min preincubation at 37 C; Suc-AAPF-AMC hydrolysis by fluorescence; Ki* corrected for substrate
# Experimental: (§1) The BTL.009 concentration was determined by amino acid analysis. The concentration of human neutrophil elastase, cathepsin G, and proteinase 3 were based on the manufacturer's specifications. […] Hydrolysis of AMC-conjugated peptides was monitored on a Hitachi model F4500 fluorometer (excitation=370 nm, emission=432 nm) over the first 2 minutes of the reaction. Ki* values were determined from plots of fractional rate versus inhibitor concentration, which were fit by nonlinear regression analysis (Enzifitter™ by Bio soft, Cambridge UK) as described (44). Ki values were obtained by correction for the effect of substrate as described (44).
# [2] = target: T2, Human neutrophil proteinase 3; assay: enzyme inhibition; 30 min preincubation at 37 C; Suc-AAPV-AMC hydrolysis by fluorescence; Ki* corrected for substrate
# Experimental: as §1
# [3] = target: Human neutrophil elastase (human, UniProt P08246); assay: as above
# Experimental: as §1
binder,measurement,setting,value
B1,Ki,[1],1800 nM
same,Ki,[2],190 nM
same,Ki,[3],8 nM
